T1: CLDN 7 expressed on HEK 293 cells (UniProt O95471 1-211, limits assumed)
T1 construct: whole, on cells
T1 sequence (looked up): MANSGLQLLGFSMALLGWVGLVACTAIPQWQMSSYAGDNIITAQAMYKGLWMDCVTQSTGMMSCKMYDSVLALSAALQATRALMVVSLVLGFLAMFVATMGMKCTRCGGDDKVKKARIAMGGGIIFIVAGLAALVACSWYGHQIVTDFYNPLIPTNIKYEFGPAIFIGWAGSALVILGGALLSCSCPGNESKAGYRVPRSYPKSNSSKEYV

T2: Claudin-11
T2 construct: expressed on transiently transfected HEK 293 cells; the sheet prints only the number after Claudin-1
T2 sequence (O75508 whole entry, species assumed, looked up): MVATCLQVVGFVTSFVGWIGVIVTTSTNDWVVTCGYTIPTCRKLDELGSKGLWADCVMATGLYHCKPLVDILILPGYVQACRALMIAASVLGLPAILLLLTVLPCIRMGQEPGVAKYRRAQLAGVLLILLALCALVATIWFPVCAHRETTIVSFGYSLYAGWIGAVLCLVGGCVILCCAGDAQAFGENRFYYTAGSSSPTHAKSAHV

T3: Claudin-5
T3 construct: expressed on transiently transfected HEK 293 cells; the sheet prints only the number after Claudin-1
T3 sequence (O00501 whole entry, species assumed, looked up): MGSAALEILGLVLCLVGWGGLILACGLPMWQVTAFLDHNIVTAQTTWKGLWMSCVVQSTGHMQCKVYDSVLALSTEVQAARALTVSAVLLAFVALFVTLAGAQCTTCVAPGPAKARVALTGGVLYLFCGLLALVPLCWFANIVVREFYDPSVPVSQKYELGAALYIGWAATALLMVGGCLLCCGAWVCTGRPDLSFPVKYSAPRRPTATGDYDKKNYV

T4: Claudin-23
T4 construct: expressed on transiently transfected HEK 293 cells; the sheet prints only the number after Claudin-1
T4 sequence (Q96B33 1-292, species assumed, looked up): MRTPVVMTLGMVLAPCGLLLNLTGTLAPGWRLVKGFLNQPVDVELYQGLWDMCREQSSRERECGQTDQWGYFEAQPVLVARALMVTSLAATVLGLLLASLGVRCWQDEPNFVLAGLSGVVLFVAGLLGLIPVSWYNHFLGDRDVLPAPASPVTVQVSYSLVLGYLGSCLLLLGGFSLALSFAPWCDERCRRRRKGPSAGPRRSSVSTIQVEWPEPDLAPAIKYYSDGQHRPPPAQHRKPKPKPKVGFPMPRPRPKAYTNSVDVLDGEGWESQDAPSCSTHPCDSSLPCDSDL

T5: Claudin-16
T5 construct: expressed on transiently transfected HEK 293 cells; the sheet prints only the number after Claudin-1
T5 sequence (Q9Y5I7 1-235, species assumed, looked up): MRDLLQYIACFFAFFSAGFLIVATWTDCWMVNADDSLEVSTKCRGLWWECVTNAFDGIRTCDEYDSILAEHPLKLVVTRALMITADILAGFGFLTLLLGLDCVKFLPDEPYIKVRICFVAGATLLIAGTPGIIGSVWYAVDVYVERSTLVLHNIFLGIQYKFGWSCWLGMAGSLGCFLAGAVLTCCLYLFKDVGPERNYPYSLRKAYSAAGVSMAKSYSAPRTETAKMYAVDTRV

T6: Claudin-2
T6 construct: expressed on transiently transfected HEK 293 cells; the sheet prints only the number after Claudin-1
T6 sequence (P57739 whole entry, species assumed, looked up): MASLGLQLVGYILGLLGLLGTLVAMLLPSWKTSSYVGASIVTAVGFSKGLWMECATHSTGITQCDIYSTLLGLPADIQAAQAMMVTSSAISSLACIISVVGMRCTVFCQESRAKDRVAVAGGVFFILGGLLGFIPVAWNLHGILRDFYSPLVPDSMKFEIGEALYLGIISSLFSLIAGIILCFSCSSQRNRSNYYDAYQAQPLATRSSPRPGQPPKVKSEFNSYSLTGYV

T7: Claudin-17
T7 construct: expressed on transiently transfected HEK 293 cells; the sheet prints only the number after Claudin-1
T7 sequence (P56750 whole entry, species assumed, looked up): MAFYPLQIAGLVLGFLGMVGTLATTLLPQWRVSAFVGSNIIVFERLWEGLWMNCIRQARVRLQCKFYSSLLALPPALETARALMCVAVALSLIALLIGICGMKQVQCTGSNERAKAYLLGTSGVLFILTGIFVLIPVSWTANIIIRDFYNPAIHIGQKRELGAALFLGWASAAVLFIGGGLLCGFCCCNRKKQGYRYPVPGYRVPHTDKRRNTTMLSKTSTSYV

T8: Claudin-19
T8 construct: expressed on transiently transfected HEK 293 cells; the sheet prints only the number after Claudin-1
T8 sequence (Q8N6F1 whole entry, species assumed, looked up): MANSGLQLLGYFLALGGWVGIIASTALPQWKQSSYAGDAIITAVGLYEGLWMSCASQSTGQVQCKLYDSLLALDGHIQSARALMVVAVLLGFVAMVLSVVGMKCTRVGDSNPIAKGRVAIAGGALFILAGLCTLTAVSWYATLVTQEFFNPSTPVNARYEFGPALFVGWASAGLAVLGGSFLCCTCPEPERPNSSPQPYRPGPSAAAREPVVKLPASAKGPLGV

T9: Claudin-10
T9 construct: expressed on transiently transfected HEK 293 cells; the sheet prints only the number after Claudin-1
T9 sequence (P78369 1-228, species assumed, looked up): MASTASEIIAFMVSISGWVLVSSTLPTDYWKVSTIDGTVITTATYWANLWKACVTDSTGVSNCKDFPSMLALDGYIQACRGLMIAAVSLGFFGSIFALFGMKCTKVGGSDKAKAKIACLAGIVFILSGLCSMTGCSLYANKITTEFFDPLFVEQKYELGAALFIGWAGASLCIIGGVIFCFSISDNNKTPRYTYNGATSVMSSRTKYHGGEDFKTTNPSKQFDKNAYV


How the values were obtained:
[1] = molecular target: T10, human Claudin 18.2 (CLDN18.2) expressed on cells (human, UniProt P56856-2 1-261); assay: FACS, transfected HEK 293 cells, second 18.2 column
T10 construct: whole, on cells; also called CLD18.2; CLD18A2

[2] = molecular target: T10, human Claudin 18.2 (CLDN18.2) expressed …; assay: FACS, HEK 293 cells expressing CLDN18.2
Claudin-9 = molecular target: T11, Claudin-9; assay: FACS, transfected HEK 293 cells
T11 construct: expressed on transiently transfected HEK 293 cells; the sheet prints only the number after Claudin-1

Claudin-12 = molecular target: T12, Claudin-12; assay: FACS, transfected HEK 293 cells
T12 construct: expressed on transiently transfected HEK 293 cells; the sheet prints only the number after Claudin-1

[3] = molecular target: T1, CLDN 7 expressed on HEK 293 cells; assay: FACS, transfected HEK 293 cells
Claudin-11 = molecular target: T2, Claudin-11; assay: FACS, transfected HEK 293 cells
Claudin-5 = molecular target: T3, Claudin-5; assay: FACS, transfected HEK 293 cells
Claudin-23 = molecular target: T4, Claudin-23; assay: FACS, transfected HEK 293 cells
Claudin-14 = molecular target: T13, Claudin-14; assay: FACS, transfected HEK 293 cells
T13 construct: expressed on transiently transfected HEK 293 cells; the sheet prints only the number after Claudin-1

Claudin-22 = molecular target: T14, Claudin-22; assay: FACS, transfected HEK 293 cells
T14 construct: expressed on transiently transfected HEK 293 cells; the sheet prints only the number after Claudin-1

Claudin-3 = molecular target: T15, Claudin-3; assay: FACS, transfected HEK 293 cells
T15 construct: expressed on transiently transfected HEK 293 cells; the sheet prints only the number after Claudin-1

Claudin-16 = molecular target: T5, Claudin-16; assay: FACS, transfected HEK 293 cells
Claudin-34 = molecular target: T16, Claudin-34; assay: FACS, transfected HEK 293 cells
T16 construct: expressed on transiently transfected HEK 293 cells; the sheet prints only the number after Claudin-1

Claudin-4 = molecular target: T17, Claudin-4; assay: FACS, transfected HEK 293 cells
T17 construct: expressed on transiently transfected HEK 293 cells; the sheet prints only the number after Claudin-1

Claudin-2 = molecular target: T6, Claudin-2; assay: FACS, transfected HEK 293 cells
Claudin-1 = molecular target: T18, Claudin-1; assay: FACS, transfected HEK 293 cells
T18 construct: expressed on transiently transfected HEK 293 cells

Claudin-17 = molecular target: T7, Claudin-17; assay: FACS, transfected HEK 293 cells
Claudin-19 = molecular target: T8, Claudin-19; assay: FACS, transfected HEK 293 cells
Claudin-10 = molecular target: T9, Claudin-10; assay: FACS, transfected HEK 293 cells
Claudin-8 = molecular target: T19, Claudin-8; assay: FACS, transfected HEK 293 cells
T19 construct: expressed on transiently transfected HEK 293 cells; the sheet prints only the number after Claudin-1

[4] = molecular target: T10, human Claudin 18.2 (CLDN18.2) expressed …; assay: FACS, transfected HEK 293 cells, first 18.2 column
[5] = molecular target: T10, human Claudin 18.2 (CLDN18.2) expressed …; assay: FACS, hybridoma supernatant of the first fusion, AF 647 anti-IgG
[6] = molecular target: T10, human Claudin 18.2 (CLDN18.2) expressed …; assay: FACS, hybridoma subclone supernatant, CLDN18.2 and CLDN18.1 cells in one plot

MFI [1]	MFI (Claudin-9)	MFI (Claudin-12)	MFI [3]	MFI (Claudin-11)	MFI (Claudin-5)	MFI (Claudin-23)	MFI (Claudin-14)	MFI (Claudin-22)	MFI (Claudin-3)	MFI (Claudin-16)	MFI (Claudin-34)	MFI (Claudin-4)	MFI (Claudin-2)	MFI (Claudin-1)	MFI (Claudin-17)	MFI (Claudin-19)	MFI (Claudin-10)	MFI (Claudin-8)	MFI [4]	Binder	further results
2810	21.7	21.6	23.4	20.3	21.2	21.7	22.4	22.2	23.3	21.8	24.1	21.8	22	23.6	21.9	21.3	22.3	20.8	3610	M5 (mutated version of M1) (antibody, V domains shown, Humanized mouse antibody from 11E12 (hu11E12VHv1B with hu11E12VLv1); also called ASK-M5_DS; Molecule M5) VH: QVQLVQSGAEVKKPGASVKVSCKASGYTFTSYVINWVRQATGQGLEWIGEIHPRGGNTYYSEKFRGRVTLTADTSISTAYMELSSLRSEDTAVYYCARLRRGNAMDYWDQGTTVTVSS VL: DIVMTQSPSSLAVSLGEMATINCKSSQSLLNSGNQRNYLTWYQQKPGQPPKLLIYWASTRESGVPDRFSGSGSGTDFTLTISSLQAEDVAVYYCQNSYNYPYTFGQGTKLERK	EC50 (read off the curve) [2]: ~0.3 mg/L
4650	20.5	21.9	21.5	19.4	20	19.3	20.1	21.1	21.4	21	20.7	20.7	22.3	23.4	21.7	20.5	23.2	20.4	4820	ASK589-M1 (antibody, V domains shown, Humanized mouse antibody from 11E12 (hu11E12VHv1 with hu11E12VLv1); also called Molecule M1; M1_DS) VH: QVQLVQSGAEVKKPGASVKVSCKASGYTFTSYVINWVRQATGQGLEWIGEIHPRGGNTYYSEKFRGRVTLTADTSISTAYMELSSLRSEDTAVYYCAILRRGNAMDYWDQGTTVTVSS VL: DIVMTQSPSSLAVSLGEMATINCKSSQSLLNSGNQRNYLTWYQQKPGQPPKLLIYWASTRESGVPDRFSGSGSGTDFTLTISSLQAEDVAVYYCQNSYNYPYTFGQGTKLERK	
																				30B5 (mouse hybridoma subclone antibody) (antibody, V domains shown, also remade as chimeric antibody with human IgG1 and kappa) VH: EVKLEESGGGLVQPGGSMKLSCVASGFTFSNYWMNWVRQSPEKGLEWVAEIRLKSKNYATHYAESVKGRFTISRDDSIGSVYLQMNNLRAEDTGIYYCARGHYGTNYGDYWGQGTSVTVSS VL: DIVMTQSPSSLTVTAGEKVTVSCKSSQSLFNSGNQKHYLTWYQQKPGQPPKLLIYRASTRESGVPDRFTGSGSGTDFTLTIRNVQAEDLAVYYCQNDYSFPLTFGAGTKLELK	binding result [5]: binds
																				83G3 (mouse hybridoma subclone antibody) (antibody, V domains shown, also remade as chimeric antibody with human IgG1 and kappa) VH: QVQLQQSGAELAKPGASVKLSCKASGFTFTSYWIHWVKQRPGQGLEWIGYIDPSNTYTKFNQKFKDKATLTADKSSSTAYMQLNSLTFEDSAVYYCATGRGFAYWGQGTLVTVSS VL: DIVMTQSPSSLTVTAGEKVTVSCKSSQSLFNSGNQKHYLTWYQQKPGQPPKLLIYRASTRESGVPDRFTGSGSGTDFTLTIRNVQAEDLAVYYCQNDYSFPLTFGAGTKLELK	binding result [6]: binds
																				79C4 (mouse hybridoma subclone antibody) (antibody, V domains shown, also remade as chimeric antibody with human IgG1 and kappa (pFUSE vectors)) VH: EVKLEESGGGLVQPGGSMKLSCVASGFTFSNYWMNWVRQSPEKGLEWVAEIRLKSKNYATHYAESVKGRFTISRDDSIGSVYLQMNNLRAEDTGIYYCARGHYGTNYGDYWGQGTSVTVSS VL: DIQTTQSPSSLSASLGERVTLTCRASQEISGYLSWLQQKPDGTIKRLIYAASTLDSGVPKRFSGSRSGSDYSLTINSLESEDFVDYYCLQYDSSPWTFGGGTKLEIK	binding result [6]: binds
																				85H12 (mouse hybridoma subclone antibody) (antibody, V domains shown, also remade as chimeric antibody with human IgG1 and kappa) VH: EVKLEESGGGLVQPGGSMKLSCVASGFTFSNYWMNWVRQSPEKGLEWVAEIRLKSKNYATHYAESVKGRFTISRDDSIGSVYLQMNNLRAEDTGIYYCARGHYGTNYGDYWGQGTSVTVSS VL: DIVMTQSPSSLTVTAGEKVTVSCKSSQSLFNSGNQKHYLTWYQQKPGQPPKLLIYRASTRESGVPDRFTGSGSGTDFTLTIRNVQAEDLAVYYCQNDYSFPLTFGAGTKLELK	binding result [6]: binds
4050	21.8	20.7	22.6	20.9	20.3	22	21.7	29.1	23.8	24.5	22.3	22	21.3	22.8	21.8	21	23	21.4	3870	ASK589-B (antibody, human IgG1, kappa, V domains shown, Humanized rabbit antibody (from Clone 46; HC5M1 with LC1M1); also called Molecule B) VH: EVQLVESGGGLVKPGGSLRLSCAVSGFYFNRGYWICWVRQAPGKGLEWIGCIDTGSGVPYYANWAKGRFTISRHTSKTTLTLQMNSLRAEDTASYFCARNSDSIYFNIWGPGTLVTVSS VL: DIVMTQSPSSLSASVGDRVTITCQASQSIGGYISWYQQKPGKAPKLLIYKASTLASGVPSRFSGSGSGTDFTLTISSLQPEDFATYYCQNYAGVSIYGAVFGGGTKVVIKR	EC50 (read off the curve) [2]: ~0.3 mg/L; binding result [3]: no binding

Source: patent publication US20200040101A1 (ASKGENE PHARMA, published 2020)
